Assay results from the nanobody polyreactivity screen of Harvey et al. (2022).

Experiment: yeast display, Sf9 membrane polyspecificity reagent, FACS + sequencing; frameworks hold sequencing errors
Method in brief: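 Galactose-induced (36–48 hours) yeast carrying a synthetic nanobody display library were exposed to 10% biotinylated, detergent-solubilized Sf9 membrane reagent at 4 °C for 1 hour. FACS followed streptavidin microbead enrichment, using low and high (top ~1%) gates for expression (anti-HA) and reagent binding (streptavidin). Colony PCR, MiSeq 2 × 250 sequencing and CDR-length filtering followed. Labels for polyreactivity reflect the gate of origin.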

QVQLVESGGGLVQAGGSLRLSCAASGSTFSHNAMGWYRQAPGKERELVAAIRWNGGSTHYADSVKVRFTISRDNAKNTVYLQMNSLKPEDTAVYYCAKENHYFTQGYGYWGQGTQVTVSS
polyreactivity (PSR sort gate): low polyreactivity

QVQLVESGGGLVQAGGSLRLSCAASGSIFAGYAMGWYRQAPGKERELVATITSGGSTNYADSVKGRFTISRDNAKNTVYLQMNSLKPEDTAVYYCAADVEDSIPSSYTGGEYDYWGQGTQGTVSS
polyreactivity (PSR sort gate): low polyreactivity

QVQLVESGGGLVQAGGSLRLSCAASGSIFGYYAMGWYRQAPGKERELVAAISGSGGSTYYADSVKGRFTISRDNAKNTVYLQMNSLKPEDTAVYYCDRVRGGYDKMYYWGQGTQVTVSS
polyreactivity (PSR sort gate): high polyreactivity

QVQLVESGGGLVQAGGSIRLSCAASGSTSYIKVMGWYRQAPGKEREMVATISSSGGNTYYADSVKGRFTISRDNAKNTVYLQMNSLKPEDTAVYYCAAKVRVWYYRMDSWGQCTQVTVSS
polyreactivity (PSR sort gate): low polyreactivity

QVQLVESGGGLVQAGGSLRLSCAASGRTFYFNGMGWSRQAPGKETELVAVITKSGGDTYYADSVKGRFTISRDNAKNTVYLQMNSLKPEDTAVYYCAAVYGYYTYWIPGFTWAVDYWGQGTQVTVSS
polyreactivity (PSR sort gate): low polyreactivity

QVQLVESGGGLVQAGGSLRLSCAASGGMGWYRQAPGKERELVATISSVGSTNYADSVKGRFTISRDNAKNTVYLQMNSLKPEDTAVYYCAADYGSDYTKGDYWGQGTQVTVSS
polyreactivity (PSR sort gate): low polyreactivity

QVQLVEAGGGLVQAGGSLRLSCAASVSTLFFNAMGWYRQGTGKERELVAGITDGGNTNYADSVKGRFTISRDNAKNTVYIQMNSLKPEDTAVYYCATDGVNPFYAYDYWGQGTQVTVSS
polyreactivity (PSR sort gate): low polyreactivity

QVQLVESGGGLVQAGGSLRLSCAASGSIFGLNDMGWYRQAPGKERELVAGISSGGSTYYADSVKGRFTISRDNAKNTVYLQMNSLKPEDTAVYYCATEGRWPNASYGDYDYWGQGTQVTVSS
polyreactivity (PSR sort gate): low polyreactivity

QVQLVESGGGLVQAGGSLRLSCAASGFIFVRYAMGWYRQAPGKERELVASITRSGGSTYYADSVKGRFTISRDNAKNTVYLQMNSLKPEDTAVYYCNAGLLRRRMDYWGQGTQVTVSS
polyreactivity (PSR sort gate): high polyreactivity

QVQLVESGGGLVQAGGSLRLSCAASGSILIWNTMGWDRQAPGKDRELVAAISSGGSTYYADSVKGRFTISRDNAKNTVYLQMNSLKPEDTAVYYCNVDLPRVLTDDSWGQGTHVTVSS
polyreactivity (PSR sort gate): low polyreactivity

QVQLVESGGGLDQAGGSLRLSCADSGYTFRAYAMGWYRQAPGKERELVAAITRSGTSTYYADSVKGRFTISRDNAKNTVYLQMNSLKPEDTAVYYCNVDVYLYAKEYDYWGQGTQVTVSS
polyreactivity (PSR sort gate): high polyreactivity

QVQLVESGGGLVQAGGSLRLSCAASGFTFYSYAMGWYRQAPGTERELVAAISGGGGSTYYADSVKGRFTISRDNAKNTVYLQMNSLKPEDTAVYYCAKRPAYRGYGLGYYWGQGTQVTVSS
polyreactivity (PSR sort gate): high polyreactivity

QVQLVESGGGLVQAGGSLRLSCAASGFTFGSYAMGWYRQAPGKERELVAVITRSGRTNYADSVKGRFTISRDNAKNTVYLLMNSLKPEDTAVYYCNADDVDDEVSPDLTEMDYWGQGTQVTVSS
polyreactivity (PSR sort gate): low polyreactivity

QVQLVESGGGLVQAGGSLRLSCAASGSIFSRYAMGWYRQAPGKESELVAASRWTDSSTYYADSVKGRFTISRDNAKNTVYLQMNSLKPEDTAVYYCAKVYERGSNKVDYWGQGTQVTVSS
polyreactivity (PSR sort gate): low polyreactivity

QVQLVESGGGLVQAGGSLRLSCAASGSIFGFNAMGWYRQAPGIERELVAAINNGGSTNYADSVKGRFTISRENANNTVYLQMNSLKPEDTADYYCAARLNYIRRGYWGQGTQVTVSS
polyreactivity (PSR sort gate): high polyreactivity

QVQLVESGGRLVQAGGSLRLSCAASGSILTYYTMGWYRQAPGKERELVARISWSGSRTYYADSVKGRFTISRDNAKNTVYLQMNSLKPEDTAVYYCAAKANWYANYDYWGQGTQVTVSS
polyreactivity (PSR sort gate): high polyreactivity

QVQLVESGGGLVQAGGSLRLSCAASGLTFNAYPMGCYRQAPGKEWELVAAITSRGSSTYYADSVKGRFTISRDNAKNTVYLQMNSLKPEDTAVYYCAARQRGYYYSRRYDYWGQGTQVTVSS
polyreactivity (PSR sort gate): high polyreactivity
